{"source": "the DeepSol protein solubility set"}
{"assay": "soluble on expression in E. coli; label from the status in PepcDB or PDB records"}
{"sequence": "MKLLILFSLFAIFFGVIALDSPIPEFYSTGRSTRVPSHRHRIPRLGKREVPNFQADNVPEAGGRVRRYVGPPLKLVILI", "soluble on expression in E. coli": "not soluble"}
{"sequence": "MGSDKIHHHHHHMAVKMIKVHGSGNDFYLLDQTQFQAPLSDADLKQLAINICKRDGAGLYDGADGVLVVDKSEHPQVLGRMRVINADGTEASMCGNGLRTVARYLGTQNSQEDFRVQTMYADLKVQAVADFAAHVPAYSVEISPVTFDAQTLGMHANNDATTIINEKIPALSADLKFSAVAVPNPHLIAFVDHDTLVGPELGRIGEWMNDGKNQIFPDGVNVSFVEVLGPNSIFVRTFERGVGFTNACGTAMSASSLMYVLLHQESTDFNQEIHVTNPGGMVKTVVHQGADEEYWMELIGNATFVRIVTLPLEDALQGDYSPVTATETGEQVAYEDFVANLAKA", "soluble on expression in E. coli": "not soluble"}
{"sequence": "MPLFGSIFSPKKTPPRKSASLSNLHSLDRSTRELELGLDYGTPTMNLAGQSLKFENGQWVADSVISGGVDRRETQRLRKRNQQLEEENNLLRLKVDILLDMLSETTAESHLKDKELDELKVTNRRRK", "soluble on expression in E. coli": "not soluble"}
{"sequence": "MGSDKIHHHHHHMRYDIVIIGGAIVGSSIAYYLREEGFSGSIALIERDPQFAHAATTLSMASIRQQFSIPENIRLSQFTLKLFRRLKETFGTDADIGFREGGYLILAGENGLPVLKANHDAQVAEGADIVLEDAEQLTRRFAWLSAEGISAGAYGRTGEGWFDAHAMLMLFRKALRDKKIDFIAASVTGIARDGDRVTGVSLDNGQTLEAGIVVNAAGPNAGKVAALAGLALPVEPRKRNVFVFEAREKYADMPLLVDPSGIYVRPEGSVYLTGGAEPEEGDGPADPSDFEVDWPLFEEVIWPVLATRIPAFEAIKATRAWAGHYDYNTLDQNAVIGPHPEVGNFIFANGFSGHGLQQAPAVGKALAEFLVHGGYRTIDCSAFGYGRVAEGRAFRELNVI", "soluble on expression in E. coli": "not soluble"}
{"sequence": "NGHYMDQFTYAERATDWRGNNNIANSIFSQMQLEDHPIPSWVVMSPGTGGTSATIGRFIRYQKYDTKLCVVDPENSVFYDAFQSGNNELKGNTGSKIEGIGRPRVEPSFIAGVVDEMRKIPDAASIATAHWVSQLIGRKVGASTGTNLYGVLQLACEMKQRGETGSIVTLLCDSGERYLDTYYDLAWVKENIGDIQPYLTQLEVIQAKGCVEPACCGPITA", "soluble on expression in E. coli": "not soluble"}
{"sequence": "MSLSWIYDAHIHLSDPEYKSDMNMILNYMDLLKIKACCVSMDLETSNETMSLYEKSKNILPFIGIHPEMAQKESKPVYDLIEKNNEIISGVGEIGLDRTYIDTEDEWNVQKEVFSKQLSLAEKFNKPVSIHSRKTLSDIFEILPSYKIPGILLHWFDGNKSQLRTAMDNEYFVSYGPLLIYAHDKQTLLTKTDPNRLLVETDGPVKFSRCFEYKTTEIMFVSSVIFCASKLLHMPYEKLLEQIEGNSKRFLGIEGHHHHHH", "soluble on expression in E. coli": "soluble"}
{"sequence": "MTSKADYLKKYLSPASGDIEKKKKKKNKDKNKPSGLRLIEEDAFLSVDAAKTRDIGSDEEREEIEVLKQSVKKAKVVHGFKQTFAEVDAPKVIKPEPLSPDNSPPRGKRQRHDSDNSPPRPSRKRNDSDNSPPRPSRNRHDSDKDNSPPRRRRHDSDNSPPRPSRKIREESPSARNRRSPPRTRRDRHDSDNSPPRNRSRRDSDNSPPRRRPSSPARRRKDDDLSPPRKSRKIEEPKKIKKEEPDSDTETSGRTLEGKRSGLQSARDLKEESDKLRAKNSKMFEEMDTSVSGRFADTVYRQKQTKKKGKDSEEDQAKKERETKKTEELKEKYKSWNKGVAQIEDRRAQLEEMARVAAEPMARARDDDAMNAHLKEVLHAADPMANMIQKKRRDTAIDRGELVYPSYHGHFVPNRFGIAPGYRWDGVDRSNGFEGKLAKTENTKTANQSEYYKSIAEYE", "soluble on expression in E. coli": "not soluble"}
{"sequence": "MKVGIDAGGTLIKIVQEQDNQRTFKTELTKNIDQVVEWLNQQQIEKLCLTGGNAGVIAENINIPAQIFVEFDAASQGLGILLKEQGHDLADYIFANVGTGTSLHYFDGQSQRRVGGIGTGGGMIQGLGYLLSQITDYKQLTDMAQHGDRNTIDLKVRHIYKDTEPPIPGDLTAANFGHVLHHLDADFTPSNKLAAVIGVVGEVVTTMAITVAREFKTENIVYIGSSFHNNALLRKVVEDYTVLRGCKPYYVENGAFSGAIGALYLEKLEHHHHHH", "soluble on expression in E. coli": "soluble"}
{"sequence": "MSLKLTSYTKTMQGRRKKQEDRYLVITDLTKYIDSNDYKTLYFYKKNPLYFYSIFDGHRGIKACEYCMSHIIKNIIYYFYNQGSAGAGTDEQIMEYIKLAFLKTDEQFLKVSKFPNHGCTIISLIIFRNKMFVANLGDCRAIGVVNISNTLKTEVLSNDHKPNDPKEKERIKKMGGDVICLQNVYRVKANARKNNKDKPSLLERLSMKEEVYLAVSRAIGDKDFKFNNVISATPDVICKEDNLYYSAHEVNYHYVVMACDGVWDTMSNKDIVKILQTYNNDPDKACSEIIKTAYAYGSQVHEGHHHHHH", "soluble on expression in E. coli": "not soluble"}
{"sequence": "LHPFFRSFALRASAHPVLSADFESAFAAARHAAPATAAAVQTAERLPEWNLTDLYPAMDSPELKADLDKADVACKAFETAFKGKLAALLALPDGGAALGAAVKSYEEVDDLLGRIASYGSLIYAGDTSDPARAKFYGDIQERLTDASTHLLFFTLEMNRLDDAALEAAMADPALGYYRPWVEDLRKDKPYQLDDKIEQLFHEKSNPSRGAWSRLFDETISSLRFTVDGQDLAIEPTLNLMQDPREEVRKSAGLALADTFGKNLRLFTLITNTLAKDKEISDRWRGFEDVASSRHLANRVEKEVVDAMVEAIRVSFPRLSHRYYALKARWFGKDRLEFWDRNAPLPKVETRDIGWGEAKDTVLSAYGAFSPKMADIAKTFFEKSWIDAPVRPGKSPGAFAHPTVPSAHPYVLLNYQGKPRDVMTLAHELGHGVHQVLAARQGALMAPTPLTLAETASVFGEMLTFRRLLDGAETPRARKIMLAQKVEDMINTVVRQTAFYTFERDVHIERRQGELTSEKIGEIWMKVQGESLGPAIHLGAGYETFWTYIPHFIHSPFYVYAYAFGDCLVNSLYAVYENAADGFADRYLEMLSAGGTKHHAELLAPFGLDARDPAFWQTGLSLIDRMISELESMEG", "soluble on expression in E. coli": "soluble"}
{"sequence": "MAHHHHHHMEDDFHVDEEYIKQLSEKYKNAEHPLFMDELPANIEENEDLHALYNLMIDDEDELSLAKNFKQVGNDYYQDGTKYFEDAIISYTKGIDILTKYWEDKNLEKRKAERGKLRNDSNSSPTEGTKSNAQNVSSQRISNGVSIENGESTAGEEAGKPAVKGDSTSSRKGTEITVLNGLHNEGGHRDDLRDNEIRGVLADLHCNRAIVHYKKKRYVKCLQDCRKAYAFNQTKFKSVYYSILCSYHLELYKDAHMYVNRFEDMTKSIDLKNHINLNEYEKMKEIIFKKDEDILERKKVDQNEKRKAEENEKNVANLVQDILHKRNIQMVENVYQQGNNVIPVLYVDTSMYIHFTVFLLYFERAIMETIIDFAENQSIMDHYDIVKKNKNNHLLFCYIEFPYDVFFMIHSSSYICDVLNRAKLFSPILSIHIIENEEANRQFRSGKTIKSIPL", "soluble on expression in E. coli": "not soluble"}
{"sequence": "ANSFLEEMKKGHLERECMEETCSYEEAREVFEDSDKTNEFWNKYKDGDQCETSPCQNQGKCKDGLGEYTCTCLEGFEGKNCELFTRKLCSLDNGDCDQFCHEEQNSVVCSCARGYTLADNGKACIPTGPYPCGKQTLE", "soluble on expression in E. coli": "soluble"}
{"sequence": "MKKLLSSDRIKAEALRLGFSACGLAPAEAVDETVATAFRQWLADGCQAEMAYMQNYEDKRLDPRLLVEGARTVISVALNYYPAKKLPEGEYQIAWYAYGKDYHDVMKRKLKELFEFIEKEVSFSEETDSTIASTNNIGTYTENYASAPQAPVSQTSASPLQGRIFCDTAPILERYWAWRTGLGWIGKNTHLIIPHAGSCFFLGEIILDREADNYDSPQRNQCGSCTRCLDACPTKALEAPFRLNSERCLSYLTIEYRGELSLNTGKKMGNKIYGCDECLKACPWNRFATPCRTAEFQPSPSLLSMKKDDWHSLSEEQYKTIFKGSAVKRAKYSGLMRNIKIIK", "soluble on expression in E. coli": "not soluble"}
{"sequence": "MRRRQRRQSSNIFHMLTKNQIVELREAFNFMDVNSDTFVDRGDLENFLASIGSPFSESEIDEMMAEGGDSMTYMLFLTMIGERLSCTDSEKSIFNALKEFDDNGDGTIDEKVLREWLTEKGDRMADEDVNLLLRDCVENGRIDCRSLTTKMKYGEIINE", "soluble on expression in E. coli": "not soluble"}
{"sequence": "MELRVGNRYRLGRKIGSGSFGDIYLGTDIAAGEEVAIKLECVKTKHPQLHIESKIYKMMQGGVGIPTIRWCGAEGDYNVMVMELLGPSLEDLFNFCSRKFSLKTVLLLADQMISRIEYIHSKNFIHRDVKPDNFLMGLGKKGNLVYIIDFGLAKKYRDARTHQHIPYRENKNLTGTARYASINTHLGIEQSRRDDLESLGYVLMYFNLGSLPWQGLKAATKRQKYERISEKKMSTPIEVLCKGYPSEFATYLNFCRSLRFDDKPDYSYLRQLFRNLFHRQGFSYDYVFDWNMLKFGASRAADDAERERRDREERLRH", "soluble on expression in E. coli": "soluble"}
{"sequence": "SREWRTKIQAQIDRFPIGDREGEWQTMIQKMVSSYLVHHGYCATAEAFARSTDQTVLEELASIKNRQRIQKLVLAGRMGEAIETTQQLYPSLLERNPNLLFTLKVRQFIEMVNGTDSEVRCLGGRSPKSQDSYPVSPRPFSSPSMSPSHGMNIHNLASGKGSTAHFSGFESCSNGVISNKAHQSYCHSNKHQSSNLNVPELNSINMSRSQQVNNFTSNDVDMETDHYSNGVGETSSNGFLNGSSKHDHEMEDCDTEMEVDSSQLRRQLCGGSQAAIERMIHFGRELQAMSEQLRRDCGKNTANKKMLKDAFSLLAYSDPWNSPVGNQLDPIQREPVCSALNSAILETHNLPKQPPLALAMGQATQCLGLMARSGIGSCAFATVEDYLH", "soluble on expression in E. coli": "soluble"}
{"sequence": "MRRLLLTLILAATLLGCSQAPQEKLKVGILPIEDSLPIVVADEQGFFKKHGLDVEVIQFSSAVERDAALTAGEVDAVITDPLAVILLRDKGYDVRIASLCLGKTPKEGVFAILAAPNSDIDSVEDLDGKEIAVSLNTIIEYALDVMLSEYGLNYTKISIPKIPIRMQALLNGNVETAVLPEPLASYAVSKGAKLILSDAMLNESITQTVIVFRGDVDDEKVQKFLEAYREAVREINANKEKYREKFIEIARVPENIAGSYPIPDYPEPQQLPKEYYDRYLEWAMQRGLIEKPVPYEEAIR", "soluble on expression in E. coli": "not soluble"}
{"sequence": "MSLDPSKVTSMSAVEFTPLPTCLQHRSCDACMSSDLTFNCSWCHVLQRCSSGFDRYRQEWMDYGCAQEAEGRMCEDFQDEGHHHHHH", "soluble on expression in E. coli": "not soluble"}
{"sequence": "MTHTLQATNPLDQTAWHAWHFSRNKEAISRTGATSLSATEWISATTLKDAHTFPSLPGRWYKRGGGVVGAHLPPAFATTGTVQLRPGELLIAEDFTLTVIERLGQFALQVFDARNPKRFEFHSIAAFPPSEEWRIEARFFPEPDTVNTAAADGVIVATPTAGWVHFLKGRLDYRLRVTVQKNNLRALFSDNSSTLGVYQHRFVDIPRPDAEGNTIIDFNRAYLPPKALNRKFLCPSPSLNNHLNLTVEAGEKWVVAGGLEHHHHHH", "soluble on expression in E. coli": "soluble"}
{"sequence": "MSLKKIGIIGAGGIARAHATALSTIKNAELVGVYDINQQNAESFVKTFGGKSFENVDELIDASEGLIVASPNFCHKEHALQALGKHKHVLCEKPMAISLEEASIMKDTAERLSVRASMGFNYRYLSYVNILKSLIINNELGNILSIKVHFKKNSALRRKKFTWRDDANSKKTSGSLGDLGIHLIDMVWYLFESDFITESVRAKMNTNVKTKEDKQVLVDDYAEIYGQLRNKVFVNIITSKCSVPEDCGFSIEVVGHKKEFKYHTGNPHVYKLIDGLNVVDCPVPQSLLNDPPNEFYGWADSFRSELINWIASTQNDWVEIPSFSDGFRSQEVLEMFFEKDSNSQPMSVSAVNEGHHHHHH", "soluble on expression in E. coli": "soluble"}
